The source of these data is PMC9728169, “Enzymatic Biotransformation of Ginsenoside Rb2 into Rd by Recombinant α-L-Arabinopyranosidase from Blastococcus saxobsidens” (Journal of Microbiology and Biotechnology, 2019).

Substrate in the series: [H][C@@]1(O[C@@H]2[C@@H](O)[C@H](O)[C@@H](CO)O[C@@]2([H])O[C@H]2CC[C@]3(C)[C@@]4([H])C[C@@H](O)[C@]5([H])[C@@]([H])([C@](C)(CCC=C(C)C)O[C@@H]6O[C@H](CO[C@@H]7OC[C@H](O)[C@H](O)[C@H]7O)[C@@H](O)[C@H](O)[C@H]6O)CC[C@@]5(C)[C@]4(C)CC[C@@]3([H])C2(C)C)O[C@H](CO)[C@@H](O)[C@H](O)[C@H]1O
Nature of the series: hydrolysis of arabinopyranose moiety of Rb2 (kinetic read-out not detailed). It is filed as biochemical, Blastococcus saxobsidens. The settings on record: enzyme 10 μg/ml; substrate range 0.1 mM to 5 mM as printed (unit μM doubtful); pH and temperature not stated for this constant; unit of the source corrected.

B1: AbpBs (α-L-arabinopyranosidase) (Blastococcus saxobsidens) (protein)
chain: MRRIPFNRGWETRAHANFFAEMHGAAAPWQPVTLPHDAALGRTRDAANGAGSGYVPGGVYEYRTTLAAPAEYRDRRVLLEFEGVYRTAMVYVNGSLAGSWATGYTGFVVDLDDHLRYGGDNEIRVVCRAHQDSRWYSGAGIHRPVHLVVGPLTHLALDGVRVTTTEVDAEFAVVEVATTVEHDGRGLRTLELVTEVRDGEGSAVATATSPVTVLPGEPAVVRQRLLLPTPALWGPDSPSLYTAAVVLRDGGTDVDDDAVSFGVRTLSLDPERGLRINGEPIKLRGACVHSDNGVLGAATIGRAEERRVQLLKEAGFNALRSAHNPMSRAMLDACDRYGVLVMDELTDVWTESKTDFDAALDFPQWWERDVEAMVAKDVNHPSVVFYSIGNEIPEVAKPHGAVWSRRLAEKVRALDGTRFVTNGINAMLAVIGEAKAAEEQAGINTMLTDMGAFMDELSASELVATRTAEAYDVLDAAGMNYMEARYQLDRTLFPRRVIVGAETFAGKIDRLWRLVLDHPHVIGDFTWTGWDYLGEAGVGRVAAADDPTAGQFGAPYPWLLAHVGDIDITGHRRPASYYREIVFGRRRDPYIAVLRPERHGRELSATPWAWSDTVGSWSWAGAEEKPVTVEVYSDADEVELLLDGTSLGTAKAGEANRFRAAFEVTYAPGELTAVSRTGGQETGRCSLRSATGPLALAAAADRPVVRADDTDLAHVTLTLEDADGVVALGVDREVTVTVEGPGVLQGFGSAAPATEESYLDDVHTTFDGRALAVVRPTGAGTITLTATAPGCPPVSLGIEAR
notes: pGEX-4T-1 N-terminal GST fusion in E. coli BL21 (DE3), GST removed by thrombin (purified enzyme); primer-encoded N-terminus MRRIPF
As to B1, the Michaelis-Menten constant (Km) amounted to 920 µM.
